Target: T1, human PD-1 (human, UniProt Q15116 25-167, limits assumed)
T1 construct: also called huPD-1
Experiment: BLI, antibody on AHC tip, soluble PD-1

T1 sequence (Q15116 25-167 limits assumed): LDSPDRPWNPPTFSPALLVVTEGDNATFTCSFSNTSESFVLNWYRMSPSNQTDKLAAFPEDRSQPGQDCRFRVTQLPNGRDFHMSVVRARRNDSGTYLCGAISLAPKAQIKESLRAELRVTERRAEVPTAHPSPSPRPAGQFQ

| Kd | Binder |
| --- | --- |
| 577 nM | PMAB194 (bispecific antibody, human IgG1, kappa) heavy: EVQLLESGGGLVQPGGSLRLSCAASGFTFSSYDMSWVRQAPGKGLEWVSGITISGGSTYYADSVKGRFTISRDNSKNTLYLQMNSLRAEDTAVYYCARGRGGSGWLDYWGQGTLVTVSSASTKGPSVFPLAPSSKSTSGGTAALGCLVKDYFPEPVTVSWNSGALTSGVHTFPAVLQSSGLYSLSSVVTVPSSSLGTQTYICNVNHKPSNTKVDKKVEPKSCDKTHTCPPCPAPEAAGAPSVFLFPPKPKDTLMISRTPEVTCVVVDVSHEDPEVKFNWYVDGVEVHNAKTKPREEQYNSTYRVVSVLTVLHQDWLNGKEYKCKVSNKALPAPIEKTISKAKGQPREPQVYTLPPSREEMTKNQVSLTCLVKGFYPSDIAVEWESNGQPENNYKTTPPVLDSDGSFFLYSKLTVDKSRWQQGNVFSCSVMHEALHNHYTQKSLSLSPGGGGGSGGGGSGGGGSEVQLLESGGGLVQPGGSLRLSCAASGFTFSSYWMHWVRQAPGKGLEWVSYISGSGGYTNYADSVKGRFTISRDNSKNTLYLQMNSLRAEDTAVYYCARDRPYGYYMDVWGKGTTVTVSSGGGGSGGGGSGGGGSGGGGSDIQMTQSPSSLSASVGDRVTITCRASQSISSSLAWYQQKPGKAPKLLIYAASSLQSGVPSRFSGSGSGTDFTLTISSLQPEDFATYYCQQYKSYPVTFGQGTKVEIK light: not shown |
| 651 nM | PMAB195 (bispecific antibody, human IgG1, kappa) heavy: EVQLLESGGGLVQPGGSLRLSCAASGFTFSSYDMSWVRQAPGKGLEWVSGITISGGSTYYADSVKGRFTISRDNSKNTLYLQMNSLRAEDTAVYYCARGRGGSGWLDYWGQGTLVTVSSASTKGPSVFPLAPSSKSTSGGTAALGCLVKDYFPEPVTVSWNSGALTSGVHTFPAVLQSSGLYSLSSVVTVPSSSLGTQTYICNVNHKPSNTKVDKKVEPKSCDKTHTCPPCPAPEAAGAPSVFLFPPKPKDTLMISRTPEVTCVVVDVSHEDPEVKFNWYVDGVEVHNAKTKPREEQYNSTYRVVSVLTVLHQDWLNGKEYKCKVSNKALPAPIEKTISKAKGQPREPQVYTLPPSREEMTKNQVSLTCLVKGFYPSDIAVEWESNGQPENNYKTTPPVLDSDGSFFLYSKLTVDKSRWQQGNVFSCSVMHEALHNHYTQKSLSLSPGGGGGSGGGGSGGGGSEVQLLESGGGLVQPGGSLRLSCAASGFTFSSYWMHWVRQAPGKGLEWVSYISGSGGYTNYADSVKGRFTISRDNSKNTLYLQMNSLRAEDTAVYYCARDRPYGYYMDVWGKGTTVTVSSGGGGSGGGGSGGGGSGGGGSDIQMTQSPSSLSASVGDRVTITCRASQSISSSLAWYQQKPGKAPKLLIYAASSLQSGVPSRFSGSGSGTDFTLTISSLQPEDFATYYCQQYKSYPVTFGQGTKVEIK light: not shown |
| 104 nM | PMAB198 (bispecific antibody, human IgG1, kappa) heavy: EVQLLESGGGLVQPGGSLRLSCAASGFTFSSYDMSWVRQAPGKGLEWVSGITISGGSTYYADSVKGRFTISRDNSKNTLYLQMNSLRAEDTAVYYCARGRGGSGWLDYWGQGTDVTVSSASTKGPSVFPLAPSSKSTSGGTAALGCLVKDYFPEPVTVSWNSGALTSGVHTFPAVLQSSGLYSLSSVVTVPSSSLGTQTYICNVNHKPSNTKVDKKVEPKSCDKTHTCPPCPAPEAAGAPSVFLFPPKPKDTLMISRTPEVTCVVVDVSHEDPEVKFNWYVDGVEVHNAKTKPREEQYNSTYRVVSVLTVLHQDWLNGKEYKCKVSNKALPAPIEKTISKAKGQPREPQVYTLPPSREEMTKNQVSLTCLVKGFYPSDIAVEWESNGQPENNYKTTPPVLDSDGSFFLYSKLTVDKSRWQQGNVFSCSVMHEALHNHYTQKSLSLSPGGGGGSGGGGSGGGGSEVQLLESGGGLVQPGGSLRLSCAASGFTFSSYWMHWVRQAPGKGLEWVSYISGSGGYTNYADSVKGRFTISRDNSKNTLYLQMNSLRAEDTAVYYCARDRPYGYYMDVWGKGTTVTVSSGGGGSGGGGSGGGGSGGGGSDIQMTQSPSSLSASVGDRVTITCRASQSISSSLAWYQQKPGKAPKLLIYAASSLQSGVPSRFSGSGSGTDFTLTISSLQPEDFATYYCQQYKSYPVTFGQGTKVEIK light: not shown |

The remaining lines, values behind:

| Binder | Kd |
| --- | --- |
| PMAB175 (bispecific antibody, human IgG1, kappa) heavy: EVQLLESGGGLVQPGGSLRLSCAASGFTFSSYDMSWVRQAPGKGLEWVSGITISGGSTYYADSVKGRFTISRDNSKNTLYLQMNSLRAEDTAVYYCARGRGGSGWLDYWGQGTLVTVSSASTKGPSVFPLAPSSKSTSGGTAALGCLVKDYFPEPVTVSWNSGALTSGVHTFPAVLQSSGLYSLSSVVTVPSSSLGTQTYICNVNHKPSNTKVDKKVEPKSCDKTHTCPPCPAPEAAGAPSVFLFPPKPKDTLMISRTPEVTCVVVDVSHEDPEVKFNWYVDGVEVHNAKTKPREEQYNSTYRVVSVLTVLHQDWLNGKEYKCKVSNKALPAPIEKTISKAKGQPREPQVYTLPPSREEMTKNQVSLTCLVKGFYPSDIAVEWESNGQPENNYKTTPPVLDSDGSFFLYSKLTVDKSRWQQGNVFSCSVMHEALHNHYTQKSLSLSPGGGGGSGGGGSGGGGSEVQLLESGGGLVQPGGSLRLSCAASGFTFSDFWMHWVRQAPGKGLEWISYISGDSGYTNYADSVKGRFTISRDNSKNTLYLQMNSLRAEDTAVYYCARDRPYYYYMDVWGKGTTVTVSSGGGGSGGGGSGGGGSGGGGSDIQMTQSPSSLSASVGDRVTITCRASQSVSRSLAWYQQKPGKAPKLLIYAASSLQSGVPSRFSGSGSGTDFTLTISSLQPEDFATYYCQQYKSYPVTFGQGTKVEIK light: not shown | 77.1 nM |
| PMAB177 (bispecific antibody, human IgG1, kappa) heavy: EVQLLESGGGLVQPGGSLRLSCAASGFTFSSYDMSWVRQAPGKGLEWVSGISISGGSTYYADSVKGRFTISRDNSKNTLYLQMNSLRAEDTAVYYCARGRGGSGWLDYWGQGTLVTVSSASTKGPSVFPLAPSSKSTSGGTAALGCLVKDYFPEPVTVSWNSGALTSGVHTFPAVLQSSGLYSLSSVVTVPSSSLGTQTYICNVNHKPSNTKVDKKVEPKSCDKTHTCPPCPAPEAAGAPSVFLFPPKPKDTLMISRTPEVTCVVVDVSHEDPEVKFNWYVDGVEVHNAKTKPREEQYNSTYRVVSVLTVLHQDWLNGKEYKCKVSNKALPAPIEKTISKAKGQPREPQVYTLPPSREEMTKNQVSLTCLVKGFYPSDIAVEWESNGQPENNYKTTPPVLDSDGSFFLYSKLTVDKSRWQQGNVFSCSVMHEALHNHYTQKSLSLSPGGGGGSGGGGSGGGGSEVQLLESGGGLVQPGGSLRLSCAASGFTFSDFWMHWVRQAPGKGLEWISYISGDSGYTNYADSVKGRFTISRDNSKNTLYLQMNSLRAEDTAVYYCARDRPYYYYMDVWGKGTTVTVSSGGGGSGGGGSGGGGSGGGGSDIQMTQSPSSLSASVGDRVTITCRASQSVSRSLAWYQQKPGKAPKLLIYAASSLQSGVPSRFSGSGSGTDFTLTISSLQPEDFATYYCQQYKSYPVTFGQGTKVEIK light: not shown | 809 nM |
| PMAB183 (bispecific antibody, human IgG1, kappa) heavy: EVQLLESGGGLVQPGGSLRLSCAASGFTFSNSDMSWVRQAPGKGLEWVSAISGSGGSTYYADSVKGRFTISRDNSKNTLYLQMNSLRAEDTAVYYCARGRGGSGWLDYWGQGTLVTVSSASTKGPSVFPLAPSSKSTSGGTAALGCLVKDYFPEPVTVSWNSGALTSGVHTFPAVLQSSGLYSLSSVVTVPSSSLGTQTYICNVNHKPSNTKVDKKVEPKSCDKTHTCPPCPAPEAAGAPSVFLFPPKPKDTLMISRTPEVTCVVVDVSHEDPEVKFNWYVDGVEVHNAKTKPREEQYNSTYRVVSVLTVLHQDWLNGKEYKCKVSNKALPAPIEKTISKAKGQPREPQVYTLPPSREEMTKNQVSLTCLVKGFYPSDIAVEWESNGQPENNYKTTPPVLDSDGSFFLYSKLTVDKSRWQQGNVFSCSVMHEALHNHYTQKSLSLSPGGGGGSGGGGSGGGGSEVQLLESGGGLVQPGGSLRLSCAASGFTFSDFWMHWVRQAPGKGLEWISYISGDSGYTNYADSVKGRFTISRDNSKNTLYLQMNSLRAEDTAVYYCARDRPYYYYMDVWGKGTTVTVSSGGGGSGGGGSGGGGSGGGGSDIQMTQSPSSLSASVGDRVTITCRASQSVSRSLAWYQQKPGKAPKLLIYAASSLQSGVPSRFSGSGSGTDFTLTISSLQPEDFATYYCQQYKSYPVTFGQGTKVEIK light: not shown | 11300 nM |
| PMAB176 (bispecific antibody, human IgG1, kappa) heavy: EVQLLESGGGLVQPGGSLRLSCAASGFTFSSYDMSWVRQAPGKGLEWVSAITISGGSTYYADSVKGRFTISRDNSKNTLYLQMNSLRAEDTAVYYCARGRGGSGWLDYWGQGTLVTVSSASTKGPSVFPLAPSSKSTSGGTAALGCLVKDYFPEPVTVSWNSGALTSGVHTFPAVLQSSGLYSLSSVVTVPSSSLGTQTYICNVNHKPSNTKVDKKVEPKSCDKTHTCPPCPAPEAAGAPSVFLFPPKPKDTLMISRTPEVTCVVVDVSHEDPEVKFNWYVDGVEVHNAKTKPREEQYNSTYRVVSVLTVLHQDWLNGKEYKCKVSNKALPAPIEKTISKAKGQPREPQVYTLPPSREEMTKNQVSLTCLVKGFYPSDIAVEWESNGQPENNYKTTPPVLDSDGSFFLYSKLTVDKSRWQQGNVFSCSVMHEALHNHYTQKSLSLSPGGGGGSGGGGSGGGGSEVQLLESGGGLVQPGGSLRLSCAASGFTFSDFWMHWVRQAPGKGLEWISYISGDSGYTNYADSVKGRFTISRDNSKNTLYLQMNSLRAEDTAVYYCARDRPYYYYMDVWGKGTTVTVSSGGGGSGGGGSGGGGSGGGGSDIQMTQSPSSLSASVGDRVTITCRASQSVSRSLAWYQQKPGKAPKLLIYAASSLQSGVPSRFSGSGSGTDFTLTISSLQPEDFATYYCQQYKSYPVTFGQGTKVEIK light: not shown | 894 nM |
| PMAB178 (bispecific antibody, human IgG1, kappa) heavy: EVQLLESGGGLVQPGGSLRLSCAASGFTFSSYDMSWVRQAPGKGLEWVSGITGSGGSTYYADSVKGRFTISRDNSKNTLYLQMNSLRAEDTAVYYCARGRGGSGWLDYWGQGTLVTVSSASTKGPSVFPLAPSSKSTSGGTAALGCLVKDYFPEPVTVSWNSGALTSGVHTFPAVLQSSGLYSLSSVVTVPSSSLGTQTYICNVNHKPSNTKVDKKVEPKSCDKTHTCPPCPAPEAAGAPSVFLFPPKPKDTLMISRTPEVTCVVVDVSHEDPEVKFNWYVDGVEVHNAKTKPREEQYNSTYRVVSVLTVLHQDWLNGKEYKCKVSNKALPAPIEKTISKAKGQPREPQVYTLPPSREEMTKNQVSLTCLVKGFYPSDIAVEWESNGQPENNYKTTPPVLDSDGSFFLYSKLTVDKSRWQQGNVFSCSVMHEALHNHYTQKSLSLSPGGGGGSGGGGSGGGGSEVQLLESGGGLVQPGGSLRLSCAASGFTFSDFWMHWVRQAPGKGLEWISYISGDSGYTNYADSVKGRFTISRDNSKNTLYLQMNSLRAEDTAVYYCARDRPYYYYMDVWGKGTTVTVSSGGGGSGGGGSGGGGSGGGGSDIQMTQSPSSLSASVGDRVTITCRASQSVSRSLAWYQQKPGKAPKLLIYAASSLQSGVPSRFSGSGSGTDFTLTISSLQPEDFATYYCQQYKSYPVTFGQGTKVEIK light: not shown | 1300 nM |

From patent publication US20240301064A1 (published 2024)
